The text below walks through data of patent US20220033515A1 (Genentech, published 2022).

One assay deals with T1, hVEGF109 (human, UniProt P15692 214-315).
T1 construct: range 8-109; also called VEGF (8-109)
T1 sequence (looked up): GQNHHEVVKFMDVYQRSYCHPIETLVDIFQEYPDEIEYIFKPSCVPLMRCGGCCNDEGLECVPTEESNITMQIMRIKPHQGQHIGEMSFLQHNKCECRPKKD
Briefly: Biacore SPR. A general note: SPR reads the build-up and loss of mass on a sensor chip optically.

Assay [1] has as its target T2, human vascular endothelial growth factor (hVEGF) (human, UniProt P15692-4 27-191).
T2 construct: also called hVEGF-A; human vascular endothelial growth factor A
Briefly: equilibrium KD; method and format (Fab or IgG) not given.

The target of assay [2] is T3, HER2 extracellular domain (Her2-ECD) (human, UniProt P04626 23-652).
T3 construct: extracellular domain; also called hHER2 extracellular domain (ECD)
Nature of the assay: single-spot phage ELISA. (In general: An ELISA detects its analyte on a solid surface through an enzyme-linked reagent.)

Assay [3] addresses T3, HER2 extracellular domain (Her2-ECD). Briefly: Biacore SPR.
Assay [4] has as its target T4, human death receptor 5 (hDR5) (human, UniProt O14763 56-210).
T4 construct: also called DR5 long; hDR5-1f
Nature of the assay: ELISA on immobilised target.

The target of another assay is T5, hVEGF-D (human, UniProt O43915 93-201).
T5 sequence (looked up): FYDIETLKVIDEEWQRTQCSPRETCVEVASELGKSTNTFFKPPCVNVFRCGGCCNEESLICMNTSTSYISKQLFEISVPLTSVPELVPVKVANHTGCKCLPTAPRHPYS
Nature of the assay: ELISA on immobilised target.

For the next assay, the target named is T6, hVEGF-C (human, UniProt P49767 103-227).
T6 sequence (looked up): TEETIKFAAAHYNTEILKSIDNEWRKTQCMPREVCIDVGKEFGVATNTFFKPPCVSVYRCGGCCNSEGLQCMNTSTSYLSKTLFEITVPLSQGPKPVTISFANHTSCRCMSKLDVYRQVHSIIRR
Nature of the assay: ELISA on immobilised target.

In assay [5] the target is T7, epidermal growth factor receptor extracellular domain (hEGFR) (human, UniProt P00533 25-645).
T7 construct: extracellular domain
Nature of the assay: ELISA on immobilised target.

The target in assay [6] is bovine serum albumin (BSA) (bovine, UniProt P02769 25-607). Nature of the assay: ELISA on immobilised target.
Chain of bovine serum albumin (BSA) (P02769 25-607 limits assumed): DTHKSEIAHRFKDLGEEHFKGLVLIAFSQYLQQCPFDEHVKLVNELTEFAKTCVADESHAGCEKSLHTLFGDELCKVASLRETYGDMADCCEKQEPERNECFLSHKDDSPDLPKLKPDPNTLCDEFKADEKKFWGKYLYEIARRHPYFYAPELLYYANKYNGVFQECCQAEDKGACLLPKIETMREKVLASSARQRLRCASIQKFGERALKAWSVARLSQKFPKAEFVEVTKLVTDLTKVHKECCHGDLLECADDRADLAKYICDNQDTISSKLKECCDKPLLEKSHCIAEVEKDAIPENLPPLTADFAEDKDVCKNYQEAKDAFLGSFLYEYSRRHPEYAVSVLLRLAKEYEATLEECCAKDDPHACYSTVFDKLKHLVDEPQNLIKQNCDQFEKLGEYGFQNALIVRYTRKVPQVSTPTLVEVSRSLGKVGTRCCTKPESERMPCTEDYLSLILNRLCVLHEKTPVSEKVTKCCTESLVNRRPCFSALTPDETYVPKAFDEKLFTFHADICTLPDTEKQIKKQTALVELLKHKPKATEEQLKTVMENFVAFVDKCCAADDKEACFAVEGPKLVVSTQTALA

B1: 3-1 (antibody, V domains shown)
VH: not shown
VL: DIQMTQSPSSLSASVGDRVTITCRASQNVWDWVAWYQQKPGKAPKLLIYPASSLYSGVPSRFSGSGSGTDFTLTISSLQPEDFATYYCQQGWYIAPPTFGQGTKVEIKR
Usually Kd stands for the constant that tells how readily two partners part at equilibrium. Low readings indicate higher affinity, high ones lower affinity. In the case of B1, the Kd (in the assay with hVEGF109; in assay [1]) was 15 nM in each case. Besides, the binding result in [2] is listed as “no binding”.

B2: bH1 hIgG (antibody, V domains shown)
VH: not shown
VL: DIQMTQSPSSLSASVGDRVTITCRASQDIPRSISGYVAWYQQKPGKAPKLLIYWGSYLYSGVPSRFSGSGSGTDFTLTISSLQPEDFATYYCQQHYTTPPTFGQGTKVEIKR
notes: also called bH1 IgG; not shown: rest of the human IgG heavy chain constant region
On to B2, for which the Kd in assay [3] was determined as 9.8 nM. The binding result (in assay [4]; with hVEGF-D; with hVEGF-C; in assay [5]; in assay [6]) was “no binding (tested: 100 nM (text))” in each case.
